Values quoted from earlier work in PMC6399403.
Like-named read-outs stand apart in the source and are kept apart here.

Assays:
[1] = target: CD155 (Homo sapiens) (UniProt P15151)
[2] = target: CD155 (Homo sapiens) (UniProt P15151); remark: listed apart in the source

Chain of UniProt P15151 (P15151 21-343): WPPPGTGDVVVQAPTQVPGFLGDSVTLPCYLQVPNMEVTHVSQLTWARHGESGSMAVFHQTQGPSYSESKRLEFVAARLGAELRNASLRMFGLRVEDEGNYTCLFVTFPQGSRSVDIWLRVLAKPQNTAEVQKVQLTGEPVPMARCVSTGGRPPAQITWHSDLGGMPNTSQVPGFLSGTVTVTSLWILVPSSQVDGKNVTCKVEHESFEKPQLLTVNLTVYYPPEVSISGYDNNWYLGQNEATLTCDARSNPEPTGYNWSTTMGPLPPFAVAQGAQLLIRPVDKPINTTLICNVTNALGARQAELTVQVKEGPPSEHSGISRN

Question: With TIGIT (from UniProt Q495A1) as the substance, how does the Kd [1] read?
Answer: The Kd was 1 nM.

Question: With CD226 (from UniProt Q15762) as the substance, how does the Kd [2] read?
Answer: Its Kd is 100 nM.
